{
  "source": "IntAct's records for PubMed 26387864",
  "parents": {"B1": {"name": "Calcium uptake protein 1, mitochondrial (Homo sapiens), Q9BPX6 (parent)", "chain": "MFRLNSLSALAELAVGSRWYHGGSQPIQIRRRLMMVAFLGASAVTASTGLLWKRAHAESPPCVDNLKSDIGDKGKNKDEGDVCNHEKKTADLAPHPEEKKKKRSGFRDRKVMEYENRIRAYSTPDKIFRYFATLKVISEPGEAEVFMTPEDFVRSITPNEKQPEHLGLDQYIIKRFDGKKISQEREKFADEGSIFYTLGECGLISFSDYIFLTTVLSTPQRNFEIAFKMFDLNGDGEVDMEEFEQVQSIIRSQTSMGMRHRDRPTTGNTLKSGLCSALTTYFFGADLKGKLTIKNFLEFQRKLQHDVLKLEFERHDPVDGRITERQFGGMLLAYSGVQSKKLTAMQRQLKKHFKEGKGLTFQEVENFFTFLKNINDVDTALSFYHMAGASLDKVTMQQVARTVAKVELSDHVCDVVFALFDCDGNGELSNKEFVSIMKQRLMRGLEKPKDMGFTRLMQAMWKCAQETAWDFALPKQ"}, "B2": {"name": "Mitochondrial intermembrane space import and assembly protein 40 (Homo sapiens), Q8N4Q1 (parent)", "chain": "MSYCRQEGKDRIIFVTKEDHETPSSAELVADDPNDPYEEHGLILPNGNINWNCPCLGGMASGPCGEQFKSAFSCFHYSTEEIKGSDCVDQFRAMQECMQKYPDLYPQEDEDEEEEREKKPAEQAEETAPIEATATKEEEGSS"}, "B3": {"name": "Calcium uptake protein 1, mitochondrial (Homo sapiens), Q9BPX6 (parent)", "chain": "B1 chain", "partner": "B2 chain"}},
  "data": [
    {"variants_of": "B1", "details": "with mcu_human MCU", "values": [
      {"variant": "C463S", "effect of a mutation on the interaction": "with no effect"}
    ]},
    {"variants_of": "B2", "details": "with micu1_human MICU1, Q9BPX6", "values": [
      {"variant": "C53S", "effect of a mutation on the interaction": "with no effect"},
      {"variant": "C55S", "effect of a mutation on the interaction": "disrupting interaction strength"},
      {"variant": "C4S;C53S;C55S", "effect of a mutation on the interaction": "disrupting interaction strength"}
    ]},
    {"variants_of": "B3", "details": "with mia40_human CHCHD4, Q8N4Q1", "values": [
      {"variant": "C463A", "effect of a mutation on the interaction": "disrupting interaction strength"}
    ]}
  ]
}
